Source: patent CN115925945A (GUANGDONG FEIPENG PHARMACEUTICAL CO LTD, dated 2023)

Target: T1, 人TIGIT (全长, 表达于CHO工程细胞CHO-hTIGIT) (human, UniProt Q495A1 22-244)
T1 construct: whole, on cells
T1 sequence (looked up): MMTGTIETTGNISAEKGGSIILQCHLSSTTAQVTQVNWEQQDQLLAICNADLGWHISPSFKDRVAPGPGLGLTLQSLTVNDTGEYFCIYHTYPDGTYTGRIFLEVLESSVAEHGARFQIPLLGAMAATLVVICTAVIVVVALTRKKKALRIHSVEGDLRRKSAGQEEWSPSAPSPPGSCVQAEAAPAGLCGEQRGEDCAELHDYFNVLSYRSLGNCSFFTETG
Assay: in vitro binding activity after stress tests (acid, base, freeze-thaw, high temperature)

B1: 抗TIGIT人源化抗体15H10L3 (R0774), hIgG1亚型 (antibody, V domains shown)
VH: QVQLVQSGAEVKKPGSSVKVSCKASGYSFTSYWMNWVRQAPGQGLEWIGMIRPSDSETRLNQMFKDRVTITVDKSTSTAYMELSSLRSEDTAVYYCAGIHDYGHGAYWGQGTLVTVSS
VL: DIQMTQSPSSLSASVGDRVTITCRASENIYSNLAWYQQKPGKSPKLLVYAASHLPDGVPSRFSGSGSGTDYSLTISSLQPEDFATYYCQHFWGTPRTFGQGTKLEIKR
notes: Full-length chains printed for R0774 (hIgG1 with K214R/D356E/L358M, human kappa); Humanized from TIGIT-5 murine mAb; also called 15H10L3-hIgG1
B1: binds.
